Test results published in article PMC9118860.

Biological target: MTS-LOV2^V416L (membrane-anchored Light-oxygen-voltage-sensing domain 2, V416L variant)

12xCSL-Luc luciferase reporter (RLU) in HEK293T cells, 48 h after blue light activation (0.05-s pulses for 1, 3 and 12 h), against LOV2^WT: 5 fold
Substance: Zdk1-N1ICD (Zdark 1 fused to the human NOTCH1 intracellular domain) (designed binder)
